T1: Angiopoietin 1 (UniProt Q15389)
T1 chain: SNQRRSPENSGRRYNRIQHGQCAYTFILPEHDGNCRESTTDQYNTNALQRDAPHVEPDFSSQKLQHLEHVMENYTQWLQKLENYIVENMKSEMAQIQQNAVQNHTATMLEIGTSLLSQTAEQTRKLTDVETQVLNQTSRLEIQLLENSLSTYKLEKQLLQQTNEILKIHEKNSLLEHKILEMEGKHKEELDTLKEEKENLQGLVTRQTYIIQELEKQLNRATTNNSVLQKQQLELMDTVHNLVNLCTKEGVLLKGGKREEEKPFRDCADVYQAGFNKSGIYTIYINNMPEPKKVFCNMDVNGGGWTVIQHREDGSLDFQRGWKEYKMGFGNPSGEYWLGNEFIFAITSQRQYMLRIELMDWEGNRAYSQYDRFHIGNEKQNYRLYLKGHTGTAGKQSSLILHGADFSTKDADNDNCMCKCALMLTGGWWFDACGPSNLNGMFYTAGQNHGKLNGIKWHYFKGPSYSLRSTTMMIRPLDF

T2: Angiopoietin 2 (UniProt O15123)
T2 chain: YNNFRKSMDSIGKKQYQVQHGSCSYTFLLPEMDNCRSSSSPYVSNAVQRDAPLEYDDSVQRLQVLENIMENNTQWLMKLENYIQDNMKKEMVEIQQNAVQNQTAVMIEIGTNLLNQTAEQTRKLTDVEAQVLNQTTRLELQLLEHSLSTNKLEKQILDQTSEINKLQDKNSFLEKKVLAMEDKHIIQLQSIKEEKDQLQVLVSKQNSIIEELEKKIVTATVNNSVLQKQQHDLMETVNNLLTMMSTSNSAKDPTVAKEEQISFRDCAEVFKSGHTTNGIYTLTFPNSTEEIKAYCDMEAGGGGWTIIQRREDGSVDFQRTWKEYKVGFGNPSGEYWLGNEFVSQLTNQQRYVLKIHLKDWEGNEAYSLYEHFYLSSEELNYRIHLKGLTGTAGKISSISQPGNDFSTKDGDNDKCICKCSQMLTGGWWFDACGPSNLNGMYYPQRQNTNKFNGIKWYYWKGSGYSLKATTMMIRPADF


How the values were obtained:
Angiopoietin 1 = molecular target: T1, Angiopoietin 1; test: competition, blocking Tie-2
Angiopoietin 2 = molecular target: T2, Angiopoietin 2; test: competition, blocking Tie-2

Row | Binder | IC50 (Angiopoietin 1) | IC50 (Angiopoietin 2)
1 | HC22/LC22 (antibody, V domains shown) VH: EVQLVQSGAEVKKPGASVKVSCKASGGTFSSYAISWVRQAPGQGLEWMGGIIPIFGTANYAQKFQGRVTITADESTSTAYMELSSLRSEDTAVYYCARGGSGRFDYWGQGTLVTVSS VL: QSALTQPASVSGSPGESIIISCTGTSSDVGAYNYVSWYQQHLGKAPKLMIYDVSQRPSGVSDRFSGSKSGNTASLTISGLQAEDEADYYCSSFTGDSVIFGGGTKLTVL | 0.24 nM | 0.03 nM
2 | HC2/LC2 (antibody, V domains shown) VH: EVQLLESGGGLVQPGGSLRLSCAASGFTFSNYAMSWVRQAPGKGLEWVSVISPGSGNTYYADSVKGRFTISRDNSKNTLYLQMNSLRAEDTAVYYCAKGALKCRHRSCSSYNAMDVWGQGTLVTVSS VL: QSVLTQPPSASGTPGQRVTISCTGSSSNIGNNDVSWYQQLPGTAPKLLIYDNNHRPSGVPDRFSGSKSGTSASLAISGLRSEDEADYYCGTWDASLNGYVFGGGTKLTVL | 0.23 nM | 0.06 nM
3 | HC8/LC8 (antibody, V domains shown) VH: EVQLLESGGGLVQPGGSLRLSCAASGFTFSNYSMSWVRQAPGKGLEWVSAISPGNGNKYYADSVKGRFTISRDNSKNTLYLQMNSLRAEDTAVYYCAKGLSSLLLVGFDYWGQGTLVTVSS VL: QSVLTQPPSASGTPGQRVTISCSGSSSNIGNNDVSWYQQLPGTAPKLLIYSDSQRPSGVPDRFSGSKSGTSASLAISGLRSEDEADYYCGSWDASLNGYVFGGGTKLTVL | 0.21 nM | 0.2 nM
4 | HC4/LC4 (antibody, V domains shown) VH: EVQLLESGGGLVQPGGSLRLSCAASGFTFSNYAMSWVRQAPGKGLEWVSAISHGGSSKYYADSVKGRFTISRDNSKNTLYLQMNSLRAEDTAVYYCARDRTASLLDGFDYWGQGTLVTVSS VL: QSVLTQPPSASGTPGQRVTISCSGSSSNIGNNYVNWYQQLPGTAPKLLIYADSNRPSGVPDRFSGSKSGTSASLAISGLRSEDEADYYCGTWDASLSGYVFGGGTKLTVL | 0.26 nM | 1.35 nM
5 | HC10/LC10 (antibody, V domains shown) VH: EVQLVESGGGLVQPGGSLRLSCAASGFTFSNYAMSWVRQAPGKGLEWVSWIYPDNGNTYYADSVKGRFTISRDNSKNTLYLQMNSLRAEDTAVYYCAKYSLDKYTPWPYSYYGMDVWGQGTLVTVSS VL: QSVLTQPPSASGTPGQRVTISCTGSSSNIGNNAVTWYQQLPGTAPKLLIYDDSHRPSGAPDRFSGSKSGTSASLAISGLRSEDEADYYCGTWDASLSAYVFGGGTKLTVL | 0.19 nM | 1.22 nM
6 | HC18/LC18 (antibody, V domains shown) VH: EVQLLESGGGLVQPGGSLRLSCAASGFTFSDYDMSWVRQAPGKGLEWVSWISPDDGSIYYADSVKGRFTISRDNSKNTLYLQMNSLRAEDTAVYYCARSVLPFDYWGQGTLVTVSS VL: QSVLTQPPSASGTPGQRVTISCSGSSSNIGSNAVYWYQQLPGTAPKLLIYDDSKRPSGVPDRFSGSKSGTSASLAISGFRSEDEADYYCGSWDASLNAYVFGGGTKLTVL | 0.24 nM | 2.85 nM
7 | HC12/LC12 (antibody, V domains shown) VH: EVQLLESGGGLVQPGGSLRLSCAASGFTFSNYAMSWVRQAPGKGLEWVSVISPGSGNTYYADSVKGRFTISRDNSKNTLYLQMNSLRAEDTAVYYCAKGALKCRHRSCSSYNAMDVWGQGTLVTVSS VL: QSVLTQPPSASGTPGQRVTISCTGSSSNIGNNDVSWYQQLPGTAPKLLIYDNNHRPSGVPDRFSGSKSGTSASLAISGLRSEDEADYYCGTWDASLNGYVFGGGTKLTVL | 0.38 nM | 0.04 nM
8 | HC14/LC14 (antibody, V domains shown) VH: EVQLLESGGGLVQPGGSLGLSCAASGFTLSNYDMSWVRQAPGKGLEWVSWISPDSSSTYYADSVKGRFTISRDNSKNTLYLQMNSLRAEDTAVYYCARSVMPFDYWGQGTLVTVSS VL: QSVLTQPPSASGTPGQRVTISCSGSSSNIGSNAVYWYQQLPGTAPKLLIYDDSKRPSGVPDRFSGSKSGTSASLAIGGLRSEDEADYYCGAWDDSLSAYVFGGGTKLTVL | 0.74 nM | 0.08 nM
9 | HC16/LC16 (antibody, V domains shown) VH: EVQLLESGGGLVQPGGSLRLSCAASGFTFSDYYMSWVRQAPGKGLEWVSSISYDDGSRKYYADSGKRSVTISRDNSKNTLYLQMNSLRAEDTAVYYCARDRSTLRLDSFDYWGQGTLVTVSS VL: QSVLTQPPSASGTPGRRVTISCSGSSPNIGNNTVNWYQQLPGTAPKLLIYSDSHRPSGVPDRFSGSKSGTSASLAISGLRSEDEADYYCGAWDYSLNAYVFGGGTKLTVL | 0.26 nM | 0.32 nM
